B1: sp¦Q15007¦FL2D_HUMAN (protein, UniProt Q15007 1-396, looked up)
Pre-mRNA-splicing regulator …: MTNEEPLPKKVRLSETDFKVMARDELILRWKQYEAYVQALEGKYTDLNSNDVTGLRESEEKLKQQQQESARRENILVMRLATKEQEMQECTTQIQYLKQVQQPSVAQLRSTMVDPAINLFFLKMKGELEQTKDKLEQAQNELSAWKFTPDSQTGKKLMAKCRMLIQENQELGRQLSQGRIAQLEAELALQKKYSEELKSSQDELNDFIIQLDEEVEGMQSTILVLQQQLKETRQQLAQYQQQQSQASAPSTSRTTASEPVEQSEATSKDCSRLTNGPSNGSSSRQRTSGSGFHREGNTTEDDFPSSPGNGNKSSNSSEERTGRGGSGYVNQLSAGYESVDSPTGSENSLTHQSNDTDSSHDPQEEKAVSGKGNRTVGSRHVQNGLDSSVNVQGSVL
B2: sp¦P49588¦SYAC_HUMAN (protein, UniProt P49588 1-968, looked up)
Alanine--tRNA ligase, …: MDSTLTASEIRQRFIDFFKRNEHTYVHSSATIPLDDPTLLFANAGMNQFKPIFLNTIDPSHPMAKLSRAANTQKCIRAGGKHNDLDDVGKDVYHHTFFEMLGSWSFGDYFKELACKMALELLTQEFGIPIERLYVTYFGGDEAAGLEADLECKQIWQNLGLDDTKILPGNMKDNFWEMGDTGPCGPCSEIHYDRIGGRDAAHLVNQDDPNVLEIWNLVFIQYNREADGILKPLPKKSIDTGMGLERLVSVLQNKMSNYDTDLFVPYFEAIQKGTGARPYTGKVGAEDADGIDMAYRVLADHARTITVALADGGRPDNTGRGYVLRRILRRAVRYAHEKLNASRGFFATLVDVVVQSLGDAFPELKKDPDMVKDIINEEEVQFLKTLSRGRRILDRKIQSLGDSKTIPGDTAWLLYDTYGFPVDLTGLIAEEKGLVVDMDGFEEERKLAQLKSQGKGAGGEDLIMLDIYAIEELRARGLEVTDDSPKYNYHLDSSGSYVFENTVATVMALRREKMFVEEVSTGQECGVVLDKTCFYAEQGGQIYDEGYLVKVDDSSEDKTEFTVKNAQVRGGYVLHIGTIYGDLKVGDQVWLFIDEPRRRPIMSNHTATHILNFALRSVLGEADQKGSLVAPDRLRFDFTAKGAMSTQQIKKAEEIANEMIEAAKAVYTQDCPLAAAKAIQGLRAVFDETYPDPVRVVSIGVPVSELLDDPSGPAGSLTSVEFCGGTHLRNSSHAGAFVIVTEEAIAKGIRRIVAVTGAEAQKALRKAESLKKCLSVMEAKVKAQTAPNKDVQREIADLGEALATAVIPQWQKDELRETLKSLKKVMDDLDRASKADVQKRVLEKTKQFIDSNPNQPLVILEMESGASAKALNEALKLFKMHSPQTSAMLFTVDNEAGKITCLCQVPQNAANRGLKASEWVQQVSGLMDGKGGGKDVSAQATGKNVGCLQEALQLATSFAQLRLGDVKN
B3: sp¦O95104¦SCAF4_HUMAN (protein, UniProt O95104 1-1147, looked up)
SR-related and CTD-associated …: MDAVNAFNQELFSLMDMKPPISRAKMILITKAAIKAIKLYKHVVQIVEKFIKKCKPEYKVPGLYVIDSIVRQSRHQFGTDKDVFGPRFSKNITATFQYLYLCPSEDKSKIVRVLNLWQKNGVFKIEIIQPLLDMAAGTSNAAPVAENVTNNEGSPPPPVKVSSEPPTQATPNSVPAVPQLPSSDAFAAVAQLFQTTQGQQLQQILQTFQQPPKPQSPALDNAVMAQVQAITAQLKTTPTQPSEQKAAFPPPEQKTAFDKKLLDRFDYDDEPEAVEESKKEDTTAVTTTAPAAAVPPAPTATVPAAAAPAAASPPPPQAPFGFPGDGMQQPAYTQHQNMDQFQPRMMGIQQDPMHHQVPLPPNGQMPGFGLLPTPPFPPMAQPVIPPTPPVQQPFQASFQAQNEPLTQKPHQQEMEVEQPCIQEVKRHMSDNRKSRSRSASRSPKRRRSRSGSRSRRSRHRRSRSRSRDRRRHSPRSRSQERRDREKERERRQKGLPQVKPETASVCSTTLWVGQLDKRTTQQDVASLLEEFGPIESINMIPPRGCAYIVMVHRQDAYRALQKLSRGNYKVNQKSIKIAWALNKGIKADYKQYWDVELGVTYIPWDKVKPEELESFCEGGMLDSDTLNPDWKGIPKKPENEVAQNGGAETSHTEPVSPIPKPLPVPVPPIPVPAPITVPPPQVPPHQPGPPVVGALQPPAFTPPLGIPPPGFGPGVPPPPPPPPFLRPGFNPMHLPPGFLPPGPPPPITPPVSIPPPHTPPISIPNSTIAGINEDTTKDLSIGNPIPTVVSGARGNAESGDSVKMYGSAVPPAAPTNLPTPPVTQPVSLLGTQGVAPGPVIGLQAPSTGLLGARPGLIPLQRPPGMPPPHLQRFPLMPPRPMPPHMMHRGPPPGPGGFAMPPPHGMKGPFPPHGPFVRPGGMPGLGGPGPGPGGPEDRDGRQQPPQQPQQQPQPQAPQQPQQQQQQQPPPSQQPPPTQQQPQQFRNDNRQQFNSGRDQERFGRRSFGNRVENDRERYGNRNDDRDNSNRDRREWGRRSPDRDRHRDLEERNRRSSGHRDRERDSRDRESRREKEEARGKEKPEVTDRAGGNKTVEPPISQVGNVDTASELEKGVSEAAVLKPSEELPAEATSSVEPEKDSGSAAEAPR
B4: sp¦Q9Y5J7¦TIM9_HUMAN (protein, UniProt Q9Y5J7 2-89, looked up)
Mitochondrial import inner …: AAQIPESDQIKQFKEFLGTYNKLTETCFLDCVKDFTTREVKPEETTCSEHCLQKYLKMTQRISMRFQEYHIQQNEALAAKAGLLGQPR
B5: sp¦P08559¦ODPA_HUMAN (protein, UniProt P08559 30-390, looked up)
Pyruvate dehydrogenase E1 …: FANDATFEIKKCDLHRLEEGPPVTTVLTREDGLKYYRMMQTVRRMELKADQLYKQKIIRGFCHLCDGQEACCVGLEAGINPTDHLITAYRAHGFTFTRGLSVREILAELTGRKGGCAKGKGGSMHMYAKNFYGGNGIVGAQVPLGAGIALACKYNGKDEVCLTLYGDGAANQGQIFEAYNMAALWKLPCIFICENNRYGMGTSVERAAASTDYYKRGDFIPGLRVDGMDILCVREATRFAAAYCRSGKGPILMELQTYRYHGHSMSDPGVSYRTREEIQEVRSKSDPIMLLKDRMVNSNLASVEELKEIDVEVRKEIEDAAQFATADPEPPLEELGYHIYSSDPPFEVRGANQWIKFKSVS
B6: sp¦O75663¦TIPRL_HUMAN (protein, UniProt O75663 1-272, looked up)
TIP41-like protein: MMIHGFQSSHRDFCFGPWKLTASKTHIMKSADVEKLADELHMPSLPEMMFGDNVLRIQHGSGFGIEFNATDALRCVNNYQGMLKVACAEEWQESRTEGEHSKEVIKPYDWTYTTDYKGTLLGESLKLKVVPTTDHIDTEKLKAREQIKFFEEVLLFEDELHDHGVSSLSVKIRVMPSSFFLLLRFFLRIDGVLIRMNDTRLYHEADKTYMLREYTSRESKISSLMHVPPSLFTEPNEISQYLPIKEAVCEKLIFPERIDPNPADSQKSTQVE
B7: sp¦Q9UJZ1¦STML2_HUMAN (protein, UniProt Q9UJZ1 29-356, looked up)
Stomatin-like protein 2, …: SSGLPRNTVVLFVPQQEAWVVERMGRFHRILEPGLNILIPVLDRIRYVQSLKEIVINVPEQSAVTLDNVTLQIDGVLYLRIMDPYKASYGVEDPEYAVTQLAQTTMRSELGKLSLDKVFRERESLNASIVDAINQAADCWGIRCLRYEIKDIHVPPRVKESMQMQVEAERRKRATVLESEGTRESAINVAEGKKQAQILASEAEKAEQINQAAGEASAVLAKAKAKAEAIRILAAALTQHNGDAAASLTVAEQYVSAFSKLAKDSNTILLPSNPGDVTSMVAQAMGVYGALTKAPVPGTPDSLSSGSSRDVQGTDASLDEELDRVKMS
B8: sp¦O00567¦NOP56_HUMAN (protein, UniProt O00567 1-594, looked up)
Nucleolar protein 56: MVLLHVLFEHAVGYALLALKEVEEISLLQPQVEESVLNLGKFHSIVRLVAFCPFASSQVALENANAVSEGVVHEDLRLLLETHLPSKKKKVLLGVGDPKIGAAIQEELGYNCQTGGVIAEILRGVRLHFHNLVKGLTDLSACKAQLGLGHSYSRAKVKFNVNRVDNMIIQSISLLDQLDKDINTFSMRVREWYGYHFPELVKIINDNATYCRLAQFIGNRRELNEDKLEKLEELTMDGAKAKAILDASRSSMGMDISAIDLINIESFSSRVVSLSEYRQSLHTYLRSKMSQVAPSLSALIGEAVGARLIAHAGSLTNLAKYPASTVQILGAEKALFRALKTRGNTPKYGLIFHSTFIGRAAAKNKGRISRYLANKCSIASRIDCFSEVPTSVFGEKLREQVEERLSFYETGEIPRKNLDVMKEAMVQAEEAAAEITRKLEKQEKKRLKKEKKRLAALALASSENSSSTPEECEEMSEKPKKKKKQKPQEVPQENGMEDPSISFSKPKKKKSFSKEELMSSDLEETAGSTSIPKRKKSTPKEETVNDPEEAGHRSGSKKKRKFSKEEPVSSGPEEAVGKSSSKKKKKFHKASQED
B9: sp¦Q09161¦NCBP1_HUMAN (protein, UniProt Q09161 1-790, looked up)
Nuclear cap-binding protein …: MSRRRHSDENDGGQPHKRRKTSDANETEDHLESLICKVGEKSACSLESNLEGLAGVLEADLPNYKSKILRLLCTVARLLPEKLTIYTTLVGLLNARNYNFGGEFVEAMIRQLKESLKANNYNEAVYLVRFLSDLVNCHVIAAPSMVAMFENFVSVTQEEDVPQVRRDWYVYAFLSSLPWVGKELYEKKDAEMDRIFANTESYLKRRQKTHVPMLQVWTADKPHPQEEYLDCLWAQIQKLKKDRWQERHILRPYLAFDSILCEALQHNLPPFTPPPHTEDSVYPMPRVIFRMFDYTDDPEGPVMPGSHSVERFVIEENLHCIIKSHWKERKTCAAQLVSYPGKNKIPLNYHIVEVIFAELFQLPAPPHIDVMYTTLLIELCKLQPGSLPQVLAQATEMLYMRLDTMNTTCVDRFINWFSHHLSNFQFRWSWEDWSDCLSQDPESPKPKFVREVLEKCMRLSYHQRILDIVPPTFSALCPANPTCIYKYGDESSNSLPGHSVALCLAVAFKSKATNDEIFSILKDVPNPNQDDDDDEGFSFNPLKIEVFVQTLLHLAAKSFSHSFSALAKFHEVFKTLAESDEGKLHVLRVMFEVWRNHPQMIAVLVDKMIRTQIVDCAAVANWIFSSELSRDFTRLFVWEILHSTIRKMNKHVLKIQKELEEAKEKLARQHKRRSDDDDRSSDRKDGVLEEQIERLQEKVESAQSEQKNLFLVIFQRFIMILTEHLVRCETDGTSVLTPWYKNCIERLQQIFLQHHQIIQQYMVTLENLLFTAELDPHILAVFQQFCALQA
B10: sp¦P84103¦SRSF3_HUMAN (protein, UniProt P84103 1-164, looked up)
Serine/arginine-rich splicing …: MHRDSCPLDCKVYVGNLGNNGNKTELERAFGYYGPLRSVWVARNPPGFAFVEFEDPRDAADAVRELDGRTLCGCRVRVELSNGEKRSRNRGPPPSWGRRPRDDYRRRSPPPRRRSPRRRSFSRSRSRSLSRDRRRERSLSRERNHKPSRSFSRSRSRSRSNERK

What follows are molecules tested on human HL60 cells (assay: SWATH-MS proteomics, differential protein representation, akirin2 KO vs WT HL60 cells). Details: KO vs WT; akirin2 KO vs WT HL60 cells; sheet "Under-represented in KO".
Type: cell-based
How it was run: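 First, proteins from wild-type and knockout cells are digested with trypsin by FASP. Next, pooled IDA runs generate a reference ion library. Then six samples of 5 µg each are acquired by data-independent SWATH, and protein areas are normalized to the summed area of all detected proteins.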

First: B1
Second: B2
The “Fold Change” value of the first is lower: 0.593 for the first, 0.5997 for the second.

Going from B3 to B4, the “Fold Change” value rises from 0.586 to 0.5881.

Compared with B5, B6 is lower in “Fold Change” value: 0.6031 for the first, 0.5915 for the second.

Going from B7 to B8, the “Fold Change” value rises from 0.6025 to 0.6041.

B1 and B2 are within 0.2 log units of each other in “Log (Fold Change)” value: -0.227 for the first, -0.2221 for the second.

B3 and B4 are within 0.2 log units of each other in “Log (Fold Change)” value: -0.2321 for the first, -0.2305 for the second.

B5 and B6 are within 0.2 log units of each other in “Log (Fold Change)” value: -0.2196 for the first, -0.228 for the second.

B7 and B8 are within 0.2 log units of each other in “Log (Fold Change)” value: -0.22 for the first, -0.2189 for the second.

Same assay, conditions: akirin2 KO vs WT HL60 cells; sheet "Under-represented in KO"

Going from B9 to B10, the “Fold Change” value rises from 0.2701 to 0.2712.

B9 and B10 are within 0.2 log units of each other in “Log (Fold Change)” value: -0.5684 for the first, -0.5667 for the second.
